This sample holds only a part of the variants without activity.
B1: TPR 5TU (parent)
chain: GGAUCUUCUCGAUCUAACAAAAAAGACAAAUCUGCCACAAAGCUUGAGAGCAUCUUCGGAUGCAGAGGCGGCAGCCUUCGGUGGCGCGAUAGCGCCAACGUUCUCAACUAUGACACGCAAAACGCGUGCUCCGUUGAAUGGAGUUUAUCAUG

Variants of: B1
Test: polymerase ribozyme fitness, log enrichment relative to wild type (log ratio); higher = more active; in vitro selection for triplet polymerase activity
Summary of the method: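 PCR was used to build mutant libraries for each subunit of a heterodimeric triplet polymerase ribozyme, which were then transcribed. A single in vitro selection round, in triplicate, used a frozen incubation at −7 °C and recovered extended constructs by gel excision, streptavidin beads and RT-PCR. Fitness is the logarithm of genotype enrichment relative to wild-type enrichment, averaged over replicates with inverse-variance weights. The logarithm is base 2, and after Illumina sequencing only genotypes with ≥10 input reads and ≥1 read per output were kept.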

Point of comparison: GGAUCUUCUCGAUCUAACAAAAAAGACAAAUCUGCCACAAUGCUUGAGAGCAUCUUCGGAUGCAGAGGCGGCAGCCUUCGGUGGCGCGAUAGCGCCAACGUUCUCAACUAUGAAACGCAAAACGCGUGCUCCGUUGAAUGGAGUUUAUCAUG, “polymerase ribozyme fitness (log ratio)” value -4.16. Against it:
- GGAUCUUCUCGAUCUAACAAAAAAGACAAAUCUGCCACAAUGCUUGAGAGCAUCUUCGGAUGCAGAGGCGGCAGCCUUCGGUGGCGCGAUAGCGCCAACGUUCUCAACUAUGACACCCAAAACGCGUGCUCCGUUGAAUGGAGUUUAUCAUG — higher, -0.836
- GGAUCUUCUCGAUCUAACAAAAAAGACAAAUCUGCCACAAUGCUUGAGAGCAUCUUCGGAUGCAGAGGCGGCAGCCUUCAGUGGCGCGAUAGCGCCUACGUUCUCAACUAUGACACGCAAAACGCGUGCUCCGUUGAAUGGAGUUUAUCAUG — higher, -1.76
- GGAUCUUCUCGAUCUAACAAAAAAGACAAAUCUGCCACAAUGCUUGAGAGCAUCUUCGGAUGCAUAGGCGGCAGCCUUCGGUGGCGCGAUAGCGCCAACGUUCUCAACUAUGACACGCAAAACGCGUGCUCCGUUGAAUGCAGUUUAUCAUG — lower, ≤ -4.2
- GGAUCUUCUCGAUCUAACAAAAAAGACAAAUCUGCCACAAUGCUUGAGAGCAUCUUCGGAUGCAGAGGCGGCAGCCUUCGGUGCCGCGAUAGCGCCAACGUUGUCAACUAUGACACGCAAAACGCGUGCUCCGUUGAAUGGAGUUUAUCAUG — lower, ≤ -4.2
- GGAUCUUCUCGAUCUAACAAAAAAGACAAAUCUGCCACAAUGCUUGAGAGCAUCUUCAGAUGCAGAGGCGGCAGCCUUCGGUGGCGCGAUAGCGCCAACGUUCUCAACUAUGACACGCAAAACGCGUGCUCCGUUGAAUGGAGUUUUUCAUG — higher, 0.803
- GGAUCUUCUCGAUCUAACAAAAAAGACAAAUCUGCCACAAUGCUUGAGAGGAUCUUCUGAAGCAGAGACGGCAGCCUUCGGUGGCGCGAUAGCGCACACGUCCUCAACUAUGACACGCAAAACGCGUGCUCCGUUGAAUGGAGUUUAUCAUG — lower, ≤ -4.2
- GGAUCUUCUCGAUCUAACAAAAAAGACAAAUCUGCCACAAUGCUUGAGAGCAUCUUCGGAUGCAGAGUCGGCAGCCUUCGGUGGCGCGAUAGUGCCAACGUUCUCGACUAUGACACGCAAAACGCGUGCUCCGUUGAAUGGAGUUUAUCAUG — lower, ≤ -4.2
- GGAUCUUCUCGAUCUAACAAAAAAGACAAAUCUGCCACAAUGCUUGAGAGCAUCUUCGGAUGCAGAGGCGGCAGCCUUCAGUGGCGCGAUAGCGCCAACGUUCUCAACUAUGACACGCAAAACGCGUGCUCCGUUGAAUGGAGUUUAUCAUG — higher, -0.78
- GGAUCUUCUCGAUCUAACAAAAAAGACAAAUCUGCCACAAUGCUUGAGAGCAUCUUCGGAUGCAGAGGCGGCAGCCUUCGGUGGCGCAAUAGCGGCAACGUUCUCCACUAUGACACGCAGAACGCGUGCUCCGUUGAAUGGAGUUUAUCAUG — lower, ≤ -4.2
- GGAUCUUCUCGAUCUAACAAAAAAGACAAAUCUGCCACAAUGCUUGAGAGCAUUUUCGGAUGCAGAGGCGGCAGCCUUCGGUGGCGCGAUAGCGCAAACGUUCUCAACUAUGACACGCAAAACGCGUGCUCCGUUGAAUGGAGUUUAUCAUG — higher, -2.16
- GGAUCUUCUCGAUCUAACAAAAAAGACAAAUCUGCCACAAUGCUUGAGAGAAUCUUCGGAUGCAGAGGCGGCAGCCUUCGGUGGCCCCAUAGCGCCAACGUUCUCAACUAUGACACGCAAAACGCGUGCUCCGUUGAAUGGAGUUUAUCAUG — lower, ≤ -4.2
- GGAUCUUCUCGAUCUAACAAAAAAGACAAAUCUGCCACAAUGCUUGUGAGCAUCUUCGGAUGCAGAGGCGGCAGCCUUCGGUGGCGCGAUAGGGCCAACGUUCUCAACUAUGACACGCAAAACGCGUGCUCCGUUGAAUGGAGUUUAUCAUG — within 0.2 log units, -4.14
- GGAUCUUCUCGAUCUAACAAAAAAGACAAAUCUGCCACAAUGCUUGAGAGCAUCUUCGGAUGCAGCAGCGGCAGCCUUGGGUGGCGCGAUAGCGCUAACGUUCUCAACUAUGACACGCAAAACGCGUGCUCCGUUGAAUGGAGUUUAUCUUG — lower, ≤ -4.2
- GGAUCUUCUCGAUCUAACAAAAAAGACAAAUCUGCCACAAGGCUUGAGAGCAUCUUCGGAUGCAGAGGCGGCAGCCUUCGCCGGCGCGAUAGCGCCAACGUUCUCAACUAUGACACGCAAAACGCGUGCUCCGUUGAAUGGAGUUUAUCAUG — higher, -0.145
- GGAUCUUCUCGAUCUAACAAAAAAGACAAAUCUGCCACAAUGCUUGAGAGCAUCUUCGGAUGCAGAGGCGGCAGCCUUCGGUGGCGCGAUAGCGCCAACGUUCUGAACUAUGACACGCAAAACGCGUGCUCCGUUGAAUGGAGUUUAUCAUG — higher, -1.73
- GGAUCUUCUCGAUCUAACAAAAAAGACAAAUCUGCCACAAUGCUUGAGCGCAUCUUCGGAUGCAGAGGCGGCAGCCUUCGGUGGCGCGAUAGCGCGAACGUUCUCAACUAUGGCACGCAAAACGCGUGCUCCGUCGAAUGGAGUUUAUUAUG — lower, ≤ -4.2
- GGAUCUUCUCGAUCUAACAAAAAAGACAAAUCUGCCACAAUGCUUGAGAGCAUCUUCGGAUGCAGAGGCGGCAGCCUUCGGUGGUGCGAUAGCGCCAAAGUUCUAAACUAUGACACGGCAAACGCGUGCUCCGUUGAAUGGAGUUUAUCAUG — lower, ≤ -4.2
- GGAUCUUCUCGAUCUAACAAAAAAGACAAAUCUGCCACAAUGCUUGAGAGCAUCUUCGGAUGCAGAGGCGACAGCCUUCGGUCUCGCGAUAGCGCCAACGUUCUCAACUAUGACACGCAAAACGCGUGCUCCGUUGAAUGGAGUCUUUCAUG — lower, ≤ -4.2
- GGAUCUUCUCGAUCUAACAAAAAAGACAAAUCUGCCACAAGGCUUGAGAGCAUCUUCGGAUGCAGAGGCGGCAGCCUUCGGUGGCGCGAUAGCGCCAACGUUCGUAACUAUGACACGCAAACCGCGUGCUCCGUUGAAUGGAGUUUAUCAUG — higher, -1.26
- GGAUCUUCUCGAUCUAACAAAAAAGACAAAUCUGCCACAAGGCGUGAGAGCAUCUUCGGAUGCAGAGGCGGCAGACUUCGGUGGCGCGAUAACGCCAACGUACUCAACUAUGACACGCAAAACGCGUGCUCCGUUGAAUGGAGUUUACCAUG — lower, ≤ -4.2
- GGAUCUUCUCGAUCUAACAAAAAAGACAAAUCUGCCACAAGGCUUGAGAGCAUCUUCGGAUGCAGAGGCGGCAGCCUUCGGUGGCGCUAUAGCGCCAACGUUCUCAACUAUGACACGCAAAACGCGUGCUCCGUUGAAUGGAGUUUAUCAUG — higher, -3.82
- GGAUCUUCUCGAUCUAACAAAAAAGACAAAUCUGCCACAAUGCUUGAGAGCAUCUUCGGUUGCAGAGGCGGCAGCCUUCGGUGGCGCGAUAGCGCCAACGUUCUCAACUAUGACACGCAAAACGCGUGCUCCGUUGAAUGGAGGUUAUCAUG — higher, -0.464
- GGAUCUUCUCGAUCUAACAAAAAAGACAAAUCUGCCACAAUGCUUGAGAGCAUCUUCGGAUGCAGAGGCGGCAGCCUUCGGUGGCGCGAUAGCGUCACCGUUCUCAACUAUGACACGCAAAACGCGUGCUCCGUUGAAUGGAGUUUAUCAUG — higher, -1.48
- GGAUCUUCUCGAUCUAACAAAAAAGACAAAUCUGCCACAAUGCUUGAGAGCAUCUUCGGAUGCAGAGGCGGCAGCCUUCUGUGGCGCGAUAGCGCCAACGCUCUCAACUAUGACACGCAAAACGCGUGCUCCGUUGAAUGGAGUUUAUCAUG — within 0.2 log units, -4.09
- GGAUCUUCUCGAUCUAACAAAAAAGACAAAUCUGCCACAAGGCUAGAGAGCAUGUUCGGAUGCAGAGGCGGCAGCCUUCGGUGGCGCGAUAUCGCCAACGUUCUCAACUAUGACACGCAAAACGCGUGCUCCGUUGAAUGGAGUUUAUCAUG — higher, -2.74
- GGAUCUUCUCGAUCUAACAAAAAAGACAAAUCUGCCACAAGGCUUGAGAGCAUCUUCGGAUGCAGAGGCGGCAGCCUUCGGUGGCGCGAUAGCCCCAACGUUCUCAACUAUGACACGCAAAACGCGUGCUCCGUUGAAUGGAGUUUAUCAUG — higher, 0.425
- GGAUCUUCUCGAUCUAACAAAAAAGACAAAUCUGCCACAAGGCUUGAGAGCAUCGUCGAAUGCAGAGGCGGCAGCCUUCGGUGGCGCGAUAGCGCCAACGUUCUCAACUAUGACACGCAAAACGCGUGCUCCGUUGAAUGGAGUAUAUCAUG — higher, -0.554
- GGAUCUUCUCGAUCUAACAAAAAAGACAAAUCUGCCACAAGGCUUGAGAGCAUCUACGGAUGCAGAGGCGGCAGCCUUUGGGGGUGCGAUAGCGCCAACGUUCUCAACUAUGACACGCAAAGCGCGUGAUCCGUUUAAUGGAGUUUAUCAUG — lower, ≤ -4.2
- GGAUCUUCUCGAUCUAACAAAAAAGACAAAUCUGCCACAAUGCUUGAGAGCAUCUUCGGAUGCAGAGGCGGCAGCCUUCGGUGGGGCGAUAGCGCCAACGUUCUCAACUAUGACACGCAAAACGCAUGCUCCGUUGAAUGGAGUUUAUCAUG — higher, -2.76
- GGAUCUUCUCGAUCUAACAAAAAAGACAAAUCUGCCACAAUGCUUGAGAACCUCUUCGGAUGCAGAGGCGGCAGCCUUCGGUGGCGCGAUAGUGCCAACAUUCUCAACUAUGACACGCCAAACGCGUGCUCCGUUGAAUGGAGUUUAUCAUG — lower, ≤ -4.2
- GGAUCUUCUCGAUCUAACAAAAAAGACAAAUCUGCCACAAUGCUUGAGAGCGUCUUCGGAUGCAGAGGCGGCAGCCUUCGGUGGCGCGAUAGCGCCAACGUUCUCAUCUAUGACACGCAAAACGCGUGCUCCGUUGAAUUGAGUUUAUAAUG — lower, ≤ -4.2
- GGAUCUUCUCGAUCUAACAAAAAAGACAAAUCUGCCACAAUGCUUGAGAGCAUCUUCGGAUGCAGAGGCGGCAGCCUUCGGUGGCGCGAUAUCGCCAACGUUCUCAACUAUGACACGCAAAACGCGUGCUCCGUUGAAUGGAGUUUAUCAUG — higher, -1.05
- GGAUCUUCUCGAUCUAACAAAAAAGACAAAUCUGCCACAAUGCUUGAGAGCAUCUUCGGAUCCAGAGGCGGCAGCCUUCGGUGGCGCGAUAGCGCCAACGUUCUCAACUAUGACACGCAAAACGCGUGCUCCGUUUAAUGGAGUUUAUCAUG — higher, -3.69
- GGAUCUUCUCGAUCUAACAAAAAAGACAAAUCUGCCACAAUGCUUGAGAGCAUCUUCGGAUGCAGAGGCGGCAGCCUUCGGUGGCUCGAUAGCGCCAACGUUCUCAACUAUGACACGCAAAACGUGGGCUCCGUUGAAUGGAGUUUAUCAUG — the same, -4.16
- GGAUCUUCUCGAUCUAACAAAAAAGACAAAUCUGCCACAAGGCUUGAGAGCAUCUUCGGAUGCAGAGGCGGCAGCCGUCGGUGGGGCGAUAGCGCUAACGUUCUCAACUAUGACACGCAAAACCCGUGCUCCGUUGAAUGGAGUUUAUCAUG — lower, ≤ -4.2
- GGAUCUUCUCGAUCUAACAAAAAAGACAAAUCUGCCACAAUGCUUGAGAGCAUCUUCGGAUGCAGAGGUGGCAGCCUUCGGUGGCGUGAUAGCGCCAACGUUCUCAACUAUGACACGCAAAACGCGUGCUCCGUUGAAUGGAGUUUAUCAUG — higher, -2.75
- GGAUCUUCUCGAUCUAACAAAAAAGACAAAUCUGCCACAAUGCUUGAGAGCAUCUUUGGAUGCAGAGGCGGCAGCCUUCGGUGGUGCGAUAGCGCCAACGUUCUCAACUAUGACACGCAAAACGCGUGCUCCGUUGAAUGGAGUUUAUCAUG — higher, -1.12
